± gives the standard deviation of the averaged measurements.
Assay: total protein half-life in vivo (active degradation + dilution); higher = more stable protein
[1] = E. coli NCM3722 delta-clpP delta-lon delta-hslV, growth: N-lim chemostat, doubling time 6 h
[2] = E. coli NCM3722 delta-clpP, growth: N-lim chemostat, doubling time 6 h
[3] = E. coli NCM3722 delta-hslV, growth: N-lim chemostat, doubling time 6 h
[4] = E. coli NCM3722 delta-lon, growth: N-lim chemostat, doubling time 6 h
[5] = E. coli NCM3722 delta-smpB, growth: N-lim chemostat, doubling time 6 h
[6] = wild type E. coli NCM3722, growth: N-lim chemostat, doubling time 6 h
[7] = wild type E. coli NCM3722, growth: N-lim chemostat, doubling time 12 h
[8] = wild type E. coli NCM3722, growth: P-lim chemostat, doubling time 6 h
[9] = wild type E. coli NCM3722, growth: P-lim chemostat, doubling time 12 h
[10] = wild type E. coli NCM3722, growth: C-lim chemostat, doubling time 6 h
[11] = wild type E. coli NCM3722, growth: C-lim chemostat, doubling time 12 h
[12] = wild type E. coli NCM3722, growth: C-lim chemostat, doubling time 3 h

## MDICSRNKKLTIRRPAILVALALLLCSCKSTPPESMVTPPAGSKPPATTQQSSQPMRGIWLATVSRLDWPPVSSVNISNPTSRARVQQQAMIDKLDHLQRLGINTVFFQVKPDGTALWPSKILPWSDLMTGKIGENPGYDPLQFMLDEAHKRGMKVHAWFNPYRVSVNTKPGTIRELNSTLSQQPASVYVQHRDWIRTSGDRFVLDPGIPEVQDWITSIVAEVVSRYPVDGVQFDDYFYTESPGSRLNDNETYRKYGGAFASKADWRRNNTQQLIAKVSHTIKSIKPGVEFGVSPAGVWRNRSHDPLGSDTRGAAAYDESYADTRRWVEQGLLDYIAPQIYWPFSRSAARYDVLAKWWADVVKPTRTRLYIGIAFYKVGEPSKIEPDWMINGGVPELKKQLDLNDAVPEISGTILFREDYLNKPQTQQAVSYLQSRWGS
[1]
  total protein half-life in vivo: > 8 h
[2]
  total protein half-life in vivo: 4.93 ± 1.2 h
[3]
  total protein half-life in vivo: 1.61 h
[4]
  total protein half-life in vivo: 2.787 ± 0.01 h
[5]
  total protein half-life in vivo: 1.73 ± 0.075 h
[6]
  total protein half-life in vivo: 1.89 ± 0.55 h
[7]
  total protein half-life in vivo: 3.44 ± 0.99 h
[8]
  total protein half-life in vivo: 2.29 ± 0.57 h
[9]
  total protein half-life in vivo: 4.65 ± 0.26 h

## MDIPVNAAKPGRRRYLTLVMIFITVVICYVDRANLAVASAHIQEEFGITKAEMGYVFSAFAWLYTLCQIPGGWFLDRVGSRVTYFIAIFGWSVATLFQGFATGLMSLIGLRAITGIFEAPAFPTNNRMVTSWFPEHERASAVGFYTSGQFVGLAFLTPLLIWIQEMLSWHWVFIVTGGIGIIWSLIWFKVYQPPRLTKGISKAELDYIRDGGGLVDGDAPVKKEARQPLTAKDWKLVFHRKLIGVYLGQFAVASTLWFFLTWFPNYLTQEKGITALKAGFMTTVPFLAAFVGVLLSGWVADLLVRKGFSLGFARKTPIICGLLISTCIMGANYTNDPMMIMCLMALAFFGNGFASITWSLVSSLAPMRLIGLTGGVFNFAGGLGGITVPLVVGYLAQGYGFAPALVYISAVALIGALSYILLVGDVKRVG [P0AA76]
[10]
  total protein half-life in vivo: 4.54 ± 0.49 h
[11]
  total protein half-life in vivo: 7.29 ± 0.43 h

## MDKFRVQGPTKLQGEVTISGAKNAALPILFAALLAEEPVEIQNVPKLKDVDTSMKLLSQLGAKVERNGSVHIDARDVNVFCAPYDLVKTMRASIWALGPLVARFGQGQVSLPGGCTIGARPVDLHISGLEQLGATIKLEEGYVKASVDGRLKGAHIVMDKVSVGATVTIMCAATLAEGTTIIENAAREPEIVDTANFLITLGAKISGQGTDRIVIEGVERLGGGVYRVLPDRIETGTFLVAAAISRGKIICRNAQPDTLDAVLAKLRDAGADIEVGEDWISLDMHGKRPKAVNVRTAPHPAFPTDMQAQFTLLNLVAEGTGFITETVFENRFMHVPELSRMGAHAEIESNTVICHGVEKLSGAQVMATDLRASASLVLAGCIAEGTTVVDRIYHIDRGYERIEDKLRALGANIERVKGE [P0A749]
[1]
  total protein half-life in vivo: 4.88 ± 0.64 h
[2]
  total protein half-life in vivo: 3.91 ± 0.28 h
[3]
  total protein half-life in vivo: 3.48 ± 0.22 h
[4]
  total protein half-life in vivo: 4.25 ± 0.55 h
[5]
  total protein half-life in vivo: 3.39 ± 0.23 h
[12]
  total protein half-life in vivo: 2.92 ± 0.043 h
[10]
  total protein half-life in vivo: 6.05 ± 1.2 h
[11]
  total protein half-life in vivo: 9.85 ± 0.48 h
[6]
  total protein half-life in vivo: 3.47 ± 0.084 h
[7]
  total protein half-life in vivo: 5.28 ± 0.25 h
[8]
  total protein half-life in vivo: 5.53 ± 0.1 h
[9]
  total protein half-life in vivo: 10.9 ± 0.56 h

## MDKIFVDEAVNELQTIQDMLRWSVSRFSAANIWYGHGTDNPWDEAVQLVLPSLYLPLDIPEDMRTARLTSSEKHRIVERVIRRVNERIPVAYLTNKAWFCGHEFYVDERVLVPRSPIGELINNKFAGLISKQPQHILDMCTGSGCIAIACAYAFPDAEVDAVDISPDALAVAEQNIEEHGLIHNVIPIRSDLFRDLPKVQYDLIVTNPPYVDAEDMSDLPNEYRHEPELGLASGTDGLKLTRRILGNAADYLADDGVLICEVGNSMVHLMEQYPDVPFTWLEFDNGGDGVFMLTKEQLIAAREHFAIYKD
[1]
  total protein half-life in vivo: 5.46 ± 2.1 h
[2]
  total protein half-life in vivo: 3.84 ± 0.055 h
[3]
  total protein half-life in vivo: 3.656 ± 0.0091 h
[4]
  total protein half-life in vivo: 3.97 ± 0.38 h
[5]
  total protein half-life in vivo: 3.9 ± 0.11 h
[12]
  total protein half-life in vivo: 2.81 ± 0.12 h
[10]
  total protein half-life in vivo: 5.74 ± 0.41 h
[11]
  total protein half-life in vivo: 10 ± 0.21 h
[6]
  total protein half-life in vivo: 3.85 ± 0.054 h
[7]
  total protein half-life in vivo: 6.16 ± 0.26 h
[8]
  total protein half-life in vivo: 5.56 ± 0.2 h
[9]
  total protein half-life in vivo: 11 ± 1.2 h

## MDKLLERFLNYVSLDTQSKAGVRQVPSTEGQWKLLHLLKEQLEEMGLINVTLSEKGTLMATLPANVPGDIPAIGFISHVDTSPDCSGKNVNPQIVENYRGGDIALGIGDEVLSPVMFPVLHQLLGQTLITTDGKTLLGADDKAGIAEIMTALAVLQQKKIPHGDIRVAFTPDEEVGKGAKHFDVDAFDARWAYTVDGGGVGELEFENFNAASVNIKIVGNNVHPGTAKGVMVNALSLAARIHAEVPADESPEMTEGYEGFYHLASMKGTVERADMHYIIRDFDRKQFEARKRKMMEIAKKVGKGLHPDCYIELVIEDSYYNMREKVVEHPHILDIAQQAMRDCDIEPELKPIRGGTDGAQLSFMGLPCPNLFTGGYNYHGKHEFVTLEGMEKAVQVIVRIAELTAQRK
[1]
  total protein half-life in vivo: 4.47 ± 0.093 h
[2]
  total protein half-life in vivo: 4.26 ± 0.49 h
[3]
  total protein half-life in vivo: 3.88 ± 0.14 h
[4]
  total protein half-life in vivo: 4.53 ± 0.13 h
[5]
  total protein half-life in vivo: 4.04 ± 0.089 h
[12]
  total protein half-life in vivo: 3.079 ± 0.019 h
[10]
  total protein half-life in vivo: 6.32 ± 1.1 h
[11]
  total protein half-life in vivo: 9.74 ± 0.59 h
[6]
  total protein half-life in vivo: 3.97 ± 0.13 h
[7]
  total protein half-life in vivo: 5.85 ± 0.25 h
[8]
  total protein half-life in vivo: 5.38 ± 0.2 h
[9]
  total protein half-life in vivo: 10.3 ± 0.14 h

## MDLLIVLTYVALAWAVFKIFRIPVNQWTLATAALGGVFLVSGLILLMNYNHPYTFTAQKAVIAIPITPQVTGIVTEVTDKNNQLIQKGEVLFKLDPVRYQARVDRLQADLMTATHNIKTLRAQLTEAQANTTQVSAERDRLFKNYQRYLKGSQAAVNPFSERDIDDARQNFLAQDALVKGSVAEQAQIQSQLDSMVNGEQSQIVSLRAQLTEAKYNLEQTVIRAPSNGYVTQVLIRPGTYAAALPLRPVMVFIPEQKRQIVAQFRQNSLLRLKPGDDAEVVFNALPGQVFHGKLTSILPVVPGGSYQAQGVLQSLTVVPGTDGVLGTIELDPNDDIDALPDGIYAQVAVYSDHFSHVSVMRKVLLRMTSWMHYLYLDH [P0AFV0]
[1]
  total protein half-life in vivo: 3.52 h

## MDLSQLTPRRPYLLRAFYEWLLDNQLTPHLVVDVTLPGVQVPMEYARDGQIVLNIAPRAVGNLELANDEVRFNARFGGIPRQVSVPLAAVLAIYARENGAGTMFEPEAAYDEDTSIMNDEEASADNETVMSVIDGDKPDHDDDTHPDDEPPQPPRGGRPALRVVK [P0AFZ3]
[1]
  total protein half-life in vivo: 5.705 ± 0.0087 h
[2]
  total protein half-life in vivo: 4.58 ± 0.2 h
[3]
  total protein half-life in vivo: 3.9 ± 0.61 h
[5]
  total protein half-life in vivo: 3.43 ± 0.19 h
[12]
  total protein half-life in vivo: 2.69 ± 0.14 h
[10]
  total protein half-life in vivo: 5.89 ± 0.079 h
[11]
  total protein half-life in vivo: 7.4 ± 0.38 h
[6]
  total protein half-life in vivo: 3.26 h
[7]
  total protein half-life in vivo: 6.17 ± 3 h
[8]
  total protein half-life in vivo: 3.73 ± 0.69 h
[9]
  total protein half-life in vivo: 7.51 ± 0.57 h
